We go through 30 sequences from the supplement of paper PMC12636428.

In the data set the test system is Saccharomyces cerevisiae. Briefly: transcriptional activation domain activity (GFP:mCherry ratio, weighted mean of sorted bins, harmonized to initial dataset scale) (arbitrary fluorescence ratio units); higher = stronger transcriptional activation. As to conditions: beta-estradiol 1 µM; induction time 4 h. An outline of the steps:
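Activation activity, the read-weighted mean of bin median fluorescence averaged across barcodes, was linearly mapped onto the scale of the initial dataset. It was measured for barcoded protein tiles fused to an estradiol-inducible synthetic transcription factor at URA3 in GFP-reporter yeast diploids. Cultures diluted 1:5 into SC with 1 uM beta-estradiol were held 4 hours at 30 °C, sorted into 8 bins by GFP:mCherry ratio, and barcode-sequenced, and tiles under 50 reads were discarded.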

In the case of “PFGFLTDEVKNSYLRCSYKWSFHHIPNLLIAIRERRLDPLLIWAMLAITVRFS”, the “transcriptional activation domain activity” value stood at 79500.

As to “DCDLTCDTPCTASTSATSGHKFVQDHQSSNNDDVFHKYCKFCEESTDNQPCSK”, the “transcriptional activation domain activity” value was found to be 58300.

On to “HFILLHCNQLKNWFNNNQITWVIPKIGKCSHKIQVVSSHVLRAVHLFSQKYYL”, for which the “transcriptional activation domain activity” value turned out to be 58700.

As for “KISAEYMVQYKGGLIGKHFKSLSQIMAFVVYDLVPKDILDAWTIIGRLVVLLW”, the “transcriptional activation domain activity” value worked out at 75900.

As for “PFAFLLLLLFPLVLFLPALLLLFLPLLPLLPLLLWILWIQTLQSLFSFPDISD”, the “transcriptional activation domain activity” value was 46900.

Take “FLHLLKYIRPSFAFYFTILFWWCIQVQLLLQIIINRIRVIVPDRRHSRHIMIA”: the “transcriptional activation domain activity” value is 68800.

For “KVVLTERLARGKAEIKDLQVCFECMSLVGMKINIFKGNGFMWTIACSVLFQKG”, the “transcriptional activation domain activity” value turned out to be 52100.

As for “DSFDAPIQTLGDDQRACLKPGLWFAYKVRFCVTLKQYKVLWMCLVLLRHLRIK”, the “transcriptional activation domain activity” value was 48000.

As for “IIKLLVFTLWVLDSMHLILCTIAIYWYLIRNFNNTTNLQLNHWSMNLQTDCNG”, the “transcriptional activation domain activity” value came out at 43600.

As for “RFLSFLLLLLVFFYPFVFFVLALVLCTFWSLFPSNTPLHSLVCRLQLLHPFVF”, the “transcriptional activation domain activity” value came out at 41400.

As to “MIHVPLIIFYIILNLFVAYLCLLIFSYYYRMIAQLLYNQCMIQMQPIIHQIKE”, the “transcriptional activation domain activity” value is 53500.

Consider “MYGYCLLFYLFLFSFISLFYFYFYFYILYFLLLILIFFYFTTVLVSFHFILFF”, for which the “transcriptional activation domain activity” value turned out to be 43400.

For the sequence “KKRGKRTTNGKESGRSSKKARAGSQPKPRTNARTANAAAEDDDDDDEEDDHEG”, the “transcriptional activation domain activity” value is 46700.

Turning to “LVLRSPAILTLEEEEDVAANLSQYSVQCSEVDKFLLTYVILKLKLVKGKCLIF”, the “transcriptional activation domain activity” value was found to be 72300.

With “IIDKLGSLTFVYARRNPITIGTFAATETAILEHYGAGNIWKYILWHWVICFYS”, the “transcriptional activation domain activity” value was 44400.

Regarding “IRWHIREHQLRVLAKFCADRIGDPYVYCPCIIAKGLVLALIRIVSALLEKPAI”, the “transcriptional activation domain activity” value was 56200.

Take “NLLMRPRYPPNQFISKISLRLILTDLPYMIFVFSGIFIMLGLFYPIFYLQLYA”: the “transcriptional activation domain activity” value turned out to be 50400.

As to “SKDARETNPEGEEIEKQRRKKRSREEKEDNERSSRKRRSSRSRSPRRQKEKAN”, the “transcriptional activation domain activity” value turned out to be 30900.

On to “MLHLVTCISPSLYTSIFFLYLFHYFPSSHFLLNCRTSMHFSLSRLTFIYVLVL”, for which the “transcriptional activation domain activity” value was 50200.

With “VSVGLLDLLAYCGYGFIGVNATSVVKIFSSDSFWAVYGMFSYTMICLAFFTLR”, the “transcriptional activation domain activity” value came to 25800.

In the case of “RPKVQPFWVIDLFVPYRPLLSFVSDLYFAYQAWTQLTGLTVTLFYFSIWKLAL”, the “transcriptional activation domain activity” value stood at 58500.

With “KASLGTGDAGKATTKSASAAVKSKAAAKSAKASDSKGGGEDEEEDGGAPKKKK”, the “transcriptional activation domain activity” value came out at 18900.

Take “EQRAEGVGERRGEGGGEAQRDGAADARRHERAAEGPVRHGERRREVQEGVQGV”: the “transcriptional activation domain activity” value turned out to be 23500.

As for “MLSLKSFLPLQASLLFAAVGPISLFSLSDDVVRHIFCLKLQIFYLRFLLKWEH”, the “transcriptional activation domain activity” value turned out to be 43700.

For “TRVMAEENGMTVDEKAFEEAQEAAKEASRKARGGKGGEEAVALDVHDLAALEK”, the “transcriptional activation domain activity” value is 36200.

In the case of “MSIPPRLFYITFLLCFFNLLAYFHSLLFLSFNFPLQYLFTVNSVMHLVVSLPG”, the “transcriptional activation domain activity” value amounted to 53900.

Regarding “MYCMRYFVPLFLLPFPDSPPIFVILFLISFFLHQKPCIYCTLLLFALFSSTCF”, the “transcriptional activation domain activity” value was 48600.

As to “HKRKRTGQEEVAKKPKESRRDKKTRRKRTEPDEEIASADTKERRRKSAGAEKS”, the “transcriptional activation domain activity” value is 20800.

As for “IRDRFNHGPCKVYILFMNCTYLPMIPGLFRIIEILRYYLRLRWLRCCSAAGPD”, the “transcriptional activation domain activity” value was found to be 60300.

In the case of “MVCCAFFVVFFLIEIFIILFLCLPFFSFLFLLWEGRVGGYALWLLSVQVCVRT”, the “transcriptional activation domain activity” value is 55800.
